Assay results from US20260184782A1 (TWIST BIOSCIENCE, published 2026).

T1: recombinant human TIGIT (human, UniProt Q495A1 22-141, limits assumed)
T1 construct: recombinant human TIGIT used in Carterra SPR; also called hTIGIT
T1 sequence (looked up): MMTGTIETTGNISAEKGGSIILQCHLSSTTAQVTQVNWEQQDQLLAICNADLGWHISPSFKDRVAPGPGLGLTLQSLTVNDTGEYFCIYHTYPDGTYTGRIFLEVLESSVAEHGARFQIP


These binders were tested against T1, recombinant human TIGIT (assay: SPR Carterra, average).
Description: Binding affinities of VHH-Fc proteins to recombinant human TIGIT were measured by SPR using a Carterra instrument (Table 10A). […] Average values reported from measurements from 1-2 samples.

Kd [nM] | koff [s⁻¹] | kon [M⁻¹ s⁻¹] | Binder
21.7 | 0.0101 | 465000 | TIGIT-SC180 (Fc fusion, VHH-Fc fusion in assay) VHH: EVQLVESGGGLVQPGGSLRLSCAASGFTLNDYAMGWFRQAPGKERELVAWIARYDGSTLYADSVKGRFTISADNSKNTAYLQMNSLKPEDTAVYYCASEVASGETDYWGQGTLVTVSS
33.9 | 0.00146 | 57100 | TIGIT-SC161 (Fc fusion, VHH-Fc fusion in assay) VHH: EVQLVESGGGLVQPGGSLRLSCAASGFTFSPSWMGWFRQAPGKEREWVASVLRGGYTWYADSVKGRFTISADNSKNTAYLQMNSLKPEDTAVYYCTTDRAIGVRPLFDHWGQGTLVTVSS
126 | 0.0203 | 622000 | TIGIT-SC162 (Fc fusion, VHH-Fc fusion in assay) VHH: EVQLVESGGGLVQPGGSLRLSCAASGNTFSGGFMGWFRQAPGKEREWVASVLRGGYTWYADSVKGRFTISADNSKNTAYLQMNSLKPEDTAVYYCTTDRAIGVRPLFDHWGQGTLVTVSS
24 | 0.0115 | 383000 | TIGIT-SC147 (Fc fusion, VHH-Fc fusion in assay) VHH: EVQLVESGGGLVQPGGSLRLSCAASGTITSAVFMGWFRQAPGKEREFVAAVIWRGGSLKSYADSVKGRFTISADNSKNTAYLQMNSLKPEDTAVYYCAKLAVAGNYYYYGMDVWGQGTLVTVSS
22.1 | 0.00274 | 124000 | TIGIT-SC2 (Fc fusion, VHH-Fc fusion in assay) VHH: EVQLVESGGGLVQPGGSLRLSCAASGFTLSSNWMGWFRQAPGKEREMVAAIDWSGGSALYADSVKGRFTISADNSKNTAYLQMNSLKPEDTAVYYCAKDALSNSARFDHWGQGTLVTVSS
61.3 | 0.00807 | 142000 | TIGIT-SC125 (Fc fusion, VHH-Fc fusion in assay) VHH: EVQLVESGGGLVQPGGSLRLSCAASGFTLSGNWMGWFRQAPGKEREMVAAIDWSGGSALYADSVKGRFTISADNSKNTAYLQMNSLKPEDTAVYYCAKDALSNSARFDHWGQGTLVTVSS
51 | 0.00531 | 105000 | TIGIT-SC124 (Fc fusion, VHH-Fc fusion in assay) VHH: EVQLVESGGGLVQPGGSLRLSCAASGSIFSSNWMGWFRQAPGKEREMVAAIDWSGGSALYADSVKGRFTISADNSKNTAYLQMNSLKPEDTAVYYCAKDALSNSARFDHWGQGTLVTVSS
28.3 | 0.00179 | 63200 | TIGIT-SC80 (Fc fusion, VHH-Fc fusion in assay) VHH: EVQLVESGGGLVQPGGSLRLSCAASGNIPPINAMGWFRQAPGKEREFVAAINYSGGSTYYADSVKGRFTISADNSKNTAYLQMNSLKPEDTAVYYCARWHYDILTGYYWLDSWGQGTLVTVSS
52.4 | 0.00428 | 81600 | TIGIT-SC99 (Fc fusion, VHH-Fc fusion in assay) VHH: EVQLVESGGGLVQPGGSLRLSCAASGSIFSMNTMGWFRQAPGKEREFVGAINWSGGSTIYADSVKGRFTISADNSKNTAYLQMNSLKPEDTAVYYCARWDYDILTNYYWLEYWGQGTLVTVSS
56 | 0.00445 | 79500 | TIGIT-SC79 (Fc fusion, VHH-Fc fusion in assay) VHH: EVQLVESGGGLVQPGGSLRLSCAASGSILSINTMGWFRQAPGKEREFVAAITSAGGTTYYADSVKGRFTISADNSKNTAYLQMNSLKPEDTAVYYCARWHYDILTGYYWLDSWGQGTLVTVSS
23.9 | 0.00179 | 75100 | TIGIT-SC28 (Fc fusion, VHH-Fc fusion in assay) VHH: EVQLVESGGGLVQPGGSLRLSCAASGRTFSTDAMGWFRQAPGKEREFVATINWKDGFTYYADSVKGRFTISADNSKNTAYLQMNSLKPEDTAVYYCAGVGHDYGDYLFDYWGQGTLVTVSS
22.5 | 0.00219 | 130000 | TIGIT-SC154 (Fc fusion, VHH-Fc fusion in assay) VHH: EVQLVESGGGLVQPGGSLRLSCAASGFAFSSDWMGWFRQAPGKEREWVASVLRGGYTWYADSVKGRFTISADNSKNTAYLQMNSLKPEDTAVYYCAGDYRGFEMAFDPWGQGTLVTVSS
20.4 | 0.00254 | 209000 | TIGIT-SC136 (Fc fusion, VHH-Fc fusion in assay) VHH: EVQLVESGGGLVQPGGSLRLSCAASGFTLENNMMGWFRQAPGKEREFVAAISRSGTLKAYADSVKGRFTISADNSKNTAYLQMNSLKPEDTAVYYCARGGELTTFYFGYWGQGTLVTVSS
99.8 | 0.0212 | 212000 | TIGIT-SC150 (Fc fusion, VHH-Fc fusion in assay) VHH: EVQLVESGGGLVQPGGSLRLSCAASGFTLENNMMGWFRQAPGKEREFVAAISRSGTLKAYADSVKGRFTISADNSKNTAYLQVNSLKPEDTAVYYCVRVRGYSGYDCDYWGQGTLVTVSS
47.9 | 0.00149 | 31200 | TIGIT-SC17 (Fc fusion, VHH-Fc fusion in assay) VHH: EVQLVESGGGLVQPGGSLRLSCAASGFDFSVSWMGWFRQAPGKEREWVASVLRGGYTWYADSVKGRFTISADNSKNTAYLQMNSLKPEDTAVYYCAREGSWFDYWGQGTLVTVSS
62.5 | 0.00484 | 93300 | TIGIT-SC165 (Fc fusion, VHH-Fc fusion in assay) VHH: EVQLVESGGGLVQPGGSLRLSCAASGNTFSGGFMGWFRQAPGKEREWVASVLRGGYTWYADSVKGRFTISADNSKNTAYLQMNSLKPEDTAVYYCTTEGSGWRNWGQGTLVTVSS
883 | 0.00528 | 8880 | TIGIT-SC189 (Fc fusion, VHH-Fc fusion in assay) VHH: EVQLVESGGGLVQPGGSLRLSCAASGNTFSGGFMGWFRQAPGKEREWVASVLRGGYTWYADSVKGRFTISADNSKNTAYLQMNSLKPEDTAVYYCVTDVGAPDYWGQGTLVTVSS
23.7 | 0.00507 | 214000 | TIGIT-SC37 (Fc fusion, VHH-Fc fusion in assay) VHH: EVQLVESGGGLVQPGGSLRLSCAASGNTFSGGFMGWFRQAPGKEREWVASVLRGGYTWYADSVKGRFTISADNSKNTAYLQMNSLKPEDTAVYYCVFGGVWQDVWGQGTLVTVSS
66.1 | 0.00478 | 67600 | TIGIT-SC120 (Fc fusion, VHH-Fc fusion in assay) VHH: EVQLVESGGGLVQPGGSLRLSCAASGFTFSPSWMGWFRQAPGKEREWVASVLRGGYTWYADSVKGRFTISADNSKNTAYLQMNSLKPEDTAVYYCAKDGGWFDPWGQGTLVTVSS
24.3 | 0.0015 | 78400 | TIGIT-SC190 (Fc fusion, VHH-Fc fusion in assay) VHH: EVQLVESGGGLVQPGGSLRLSCAASGFTFDRSWMGWFRQAPGKEREWVASVLRGGYTWYADSVKGRFTISADNSKNTAYLQMNSLKPEDTAVYYCVTDVGAPDYWGQGTLVTVSS
22.8 | 0.0049 | 221000 | TIGIT-SC12 (Fc fusion, VHH-Fc fusion in assay) VHH: EVQLVESGGGLVQPGGSLRLSCAASGRTFSAYGMGWFRQAPGKEREFVAAITPSSRTTYYADSVKGRFTISADNSKNTAYLQMNSLKPEDTAVYYCAKDNWGEWLMPWWGQGTLVTVSS
33.5 | 0.00146 | 43500 | TIGIT-SC102 (Fc fusion, VHH-Fc fusion in assay) VHH: EVQLVESGGGLVQPGGSLRLSCAASGSTFSKHHAMGWFRQAPGKEREFVAAIRWSGGNTYYADSVKGRFTISADNSKNTAYLQMNSLKPEDTAVYYCARWYSSSGDYYYMDVWGQGTLVTVSS
28.7 | 0.00564 | 196000 | TIGIT-SC87 (Fc fusion, VHH-Fc fusion in assay) VHH: EVQLVESGGGLVQPGGSLRLSCAASGSIDTINTMGWFRQAPGKEREFVAAITPSSRTTYYVDSVKGRFTISADNSKNTAYLQMNSLKPEDTAVYYCARWGGVTFGGVYPLEYWGQGTLVTVSS
30.8 | 0.00294 | 106000 | TIGIT-SC89 (Fc fusion, VHH-Fc fusion in assay) VHH: EVQLVESGGGLVQPGGSLRLSCAASGSMSSINAMGWFRQAPGKEREFVAAINYEGDRTYYADSVKGRFTISADNSKNTAYLQMNSLKPEDTAVYYCARWTRGLVSGTYYYYMDVWGQGTLVTVSS
59.5 | 0.00301 | 50500 | TIGIT-SC90 (Fc fusion, VHH-Fc fusion in assay) VHH: EVQLVESGGGLVQPGGSLRLSCAASGDTFSSKAMGWFRQAPGKEREFVAAIRWSVSSTYYADSVKGRFTISADNSKNTAYLQMNSLKPEDTAVYYCARWTRGLVSGTYYYYMDVWGQGTLVTVSS
21.8 | 0.00276 | 126000 | TIGIT-SC73 (Fc fusion, VHH-Fc fusion in assay) VHH: EVQLVESGGGLVQPGGSLRLSCAASGSSFSLADYAMGWFRQAPGKEREFVAAISYNVGTTYYADSVKGRFTISADNSKNTAYLQMNSLKPEDTAVYYCARWSAKRHSDTMTYYMDVWGQGTLVTVSS
26.9 | 0.000801 | 29800 | TIGIT-SC56 (Fc fusion, VHH-Fc fusion in assay) VHH: EVQLVESGGGLVQPGGSLRLSCAASGNTFSGGFMGWFRQAPGKEREWVASVLRGGYTWYADSVKGRFTISADNSKNTAYLQMNSLKPEDTAVYYCAHSKGYNWFDPWGQGTLVTVSS
21.3 | 0.00349 | 164000 | TIGIT-SC167 (Fc fusion, VHH-Fc fusion in assay) VHH: EVQLVESGGGLVQPGGSLRLSCAASGRTFSFMGWFRQAPGKEREWVASVLRGGYTWYADSVKGRFTISADNSKNTAYLQMNSLKPEDTAVYYCAREGSGYASDYWGQGTLVTVSS
80.3 | 0.00621 | 141000 | TIGIT-SC185 (Fc fusion, VHH-Fc fusion in assay) VHH: EVQLVESGGGLVQPGGSLRLSCAASGRTFSFMGWFRQAPGKEREWVASVLRGGYTWYADSVKGRFTISADNSKNTAYLQMNSLKPEDTAVYYCTTDRGYNWNYDWGQGTLVTVSS
